Measured values taken from US20220363763A1 (ABL BIO, published 2022).
Substitutions are numbered along the chain they refer to. Names may count otherwise. Like-named read-outs stand apart in the source and are kept apart here. Each block holds one binder with its values, some of them ahead of it.

Assays:
[1] = biological target: T1, human PD-L1 (construct not stated) (human, UniProt Q9NZQ7 19-239, limits assumed); experiment: BLI Octet Red 96, affinity ranking
T1 construct: also called B7-H1 (PD-L1); PD-L1 protein
Description: To explore the binding kinetics of the humanized antibody, this example performed the affinity ranking by using Octet Red 96.

[2] = biological target: T2, human PD-L1-his taq protein (human, UniProt Q9NZQ7 19-239, limits assumed); experiment: SPR Biacore T200, antibody captured, PD-L1-his injected
T2 construct: also called recombinant PD-L1 protein; recombinant human PD-L1; not shown: his tag
How it was run: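 HL1210-3 mouse mAb was captured via anti-mouse Fc antibody on a CM5 chip, then serially diluted PD-L1-his was injected for 3 min […]. Dissociation was followed for 900 s.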

[3] = biological target: T3, human PD-L1 expressed on mammalian cells (human, UniProt Q9NZQ7 19-290); experiment: FACS receptor blocking on PDL1-CHOK1 cells, competitor Bio-PD1 (30 µg/ml)
T3 construct: whole, on cells; also called PDL1-CHOK1 cells; PDL1-Raji cells
Method: To evaluate the blocking effect of humanized antibodies on human PD-L1 expressed on mammalian cells to bind to its receptor PD-1, the FACS-based receptor blocking assay was employed. Briefly, PDL1-CHOK1 cells were firstly incubated with 3-fold serious diluted HL1210-3 mouse mAb starting at 20 μg/ml at RT for 1 hour. After wash by FACS buffer (PBS with 2% FBS), the biotin-labeled huPD-1 were added to each well and incubated at RT for 1 hour. Then, the Streptavidin-PE was added to each well for 0.5 hour post twice wash with FACS buffer. The mean florescence intensity (MFI) of PE was evaluated by FACSAriaIII.

[4] = biological target: T4, human PD-L1-Fc protein (human, UniProt Q9NZQ7 19-239); experiment: ELISA on coated human PD-L1-Fc; EC50 table has no unit, x axis Ab(nM)
T4 construct: Coated on ELISA plates; also called huPD-L1; not shown: Fc part
Method: (§1) To evaluate the antigen binding activity, the humanized antibodies were subjected to ELISA test. Briefly, microtiter plates were coated with human PD-L1-Fc protein at 0.1 μg/ml in PBS, 100 μl/well at 4° C. overnight, then blocked with 100 μl/well of 5% BSA. Five-fold dilutions of humanized antibodies starting from 10 μg/ml were added to each well and incubated for 1-2 hours at RT. The plates were washed with PBS/Tween and then incubate with […] antibody conjugated with Horse Radish Peroxidase (HRP) for 1 hour at RT. After washing, the plates were developed with TMB substrate and analyzed by spectrophotometer at OD 450-630 nm.

[5] = biological target: T4, human PD-L1-Fc protein; experiment: as above; remark: listed apart in the source
Method: as §1

[6] = biological target: T4, human PD-L1-Fc protein; experiment: as above; remark: listed apart in the source
Method: as §1

[7] = biological target: T4, human PD-L1-Fc protein; experiment: as above; remark: listed apart in the source
Method: as §1

[8] = biological target: T4, human PD-L1-Fc protein; experiment: as above; remark: listed apart in the source
Method: as §1

[9] = biological target: T3, human PD-L1 expressed on mammalian cells; experiment: flow cytometry (MFI) on PDL1-CHOK1 cells; EC50 table has no unit, x axis Antibodies(nM)
Method: (§2) To evaluate the antigen binding property, the humanized antibodies were analyzed for its binding to mammalian expressed PD-L1 by FACS. Briefly, PDL1-CHOK1 cells were firstly incubated with 5-fold serious diluted humanized antibodies starting at 2 μg/ml at RT for 1 hour. After wash by FACS buffer (PBS with 2% FBS), the alexa 488-anti-human IgG antibody was added to each well and incubated at RT for 1 hour. The MFI of Alexa 488 was evaluated by FACSAriaIII.

[10] = biological target: T3, human PD-L1 expressed on mammalian cells; experiment: as above; remark: listed apart in the source
Method: as §2

[11] = biological target: T3, human PD-L1 expressed on mammalian cells; experiment: as above; remark: listed apart in the source
Method: as §2

[12] = biological target: T1, human PD-L1 (construct not stated); experiment: SPR Biacore, affinity ranking
[13] = biological target: T3, human PD-L1 expressed on mammalian cells; experiment: cell-based binding on Raji-PDL1 cells (FACS by paragraph 328; the y axis of the sheet is labelled IL2 (ng/ml)); EC50 table has no unit, x axis Concentration (nM)
Method: as §2, with “the” for “the humanized”, “PDL1-Raji” for “PDL1-CHOK1”, “µg/ml” for “μg/ml”, “Alexa” for “alexa”

T1 sequence (Q9NZQ7 19-239 limits assumed): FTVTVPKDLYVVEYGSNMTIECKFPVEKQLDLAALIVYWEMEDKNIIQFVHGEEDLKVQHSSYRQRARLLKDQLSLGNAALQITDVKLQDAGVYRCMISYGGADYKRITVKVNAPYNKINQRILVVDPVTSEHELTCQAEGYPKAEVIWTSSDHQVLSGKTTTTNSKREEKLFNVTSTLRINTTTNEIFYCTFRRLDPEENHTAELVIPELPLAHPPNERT
T4 sequence (Q9NZQ7 19-239 limits assumed): as above
T2 sequence (Q9NZQ7 19-239 limits assumed): as above
T3 sequence (Q9NZQ7 19-290): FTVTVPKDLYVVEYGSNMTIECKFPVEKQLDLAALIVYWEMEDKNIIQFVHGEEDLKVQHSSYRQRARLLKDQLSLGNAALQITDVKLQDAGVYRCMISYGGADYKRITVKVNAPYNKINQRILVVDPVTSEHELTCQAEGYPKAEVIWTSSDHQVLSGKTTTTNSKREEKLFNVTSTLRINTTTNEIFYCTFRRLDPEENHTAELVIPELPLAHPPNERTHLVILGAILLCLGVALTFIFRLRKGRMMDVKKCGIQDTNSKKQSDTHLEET

Kd [1]: 1.07 nM | koff [1]: 0.000173 s⁻¹ | kon [1]: 162000 M⁻¹ s⁻¹ | Kd [2]: 0.264 nM | koff [2]: 3.27e-05 s⁻¹ | kon [2]: 124000 M⁻¹ s⁻¹ | TOP [3]: 87.2 | EC50 [4]: 0.177 nM | EC50 [5]: 0.139 nM | EC50 [6]: 0.169 nM | EC50 [7]: 0.16 nM | EC50 [8]: 0.17 nM | EC50 [9]: 0.95 nM | EC50 [10]: 0.95 nM | EC50 [11]: 0.95 nM
B1: H1210 chimera (antibody, V domains shown)
VH: EVKLVESGGDLVKPGGSLKLSCAASGFTFSSYDMSWVRQTPEKSLEWVATISDGGGYIYYSDSVKGRFTISRDNAKNNLYLQMSSLRSEDTALYICAREFGKRYALDYWGQGTSVTVSS
VL: DIVMTQSHKFMSTSVGDRVSISCKASQDVTPAVAWYQQKPGQSPKLLIYSTSSRYTGVPDRFTGSGSGTDFTFTISSVQAEDLAVYYCQQHYTTPLTFGAGTKLELK
notes: also called chimeric antibody

Kd [12]: 2.63 nM | koff [12]: 0.000464 s⁻¹ | kon [12]: 177000 M⁻¹ s⁻¹ | EC50 [13]: 5.04 nM
B2: WT (parental clone of the Hu1210-41 engineering) (antibody, V domains shown)
VH: EVQLVESGGGLVQPGGSLRLSCAASGFTFSSYDMSWVRQAPGKSLEWVATISDAGGYIYYRDSVKGRFTISRDNAKNSLYLQMNSLRDEDTAVYICAREFGKRYALDYWGQGTTVTVSS
VL: DIQMTQSPSSLSASVGDRVTITCKASQDVTPAVAWYQQKPGKAPKLLIYSTSSRYTGVPSRFSGSGSGTDFTFTISSLQPEDIATYYCQQHYTTPLTFGQGTKLEIK
notes: Differs from Hu1210-41 by S60R (Kabat) in the heavy chain; also called parental antibody WT; parent antibody WT

Kd [1]: 2.56 nM | koff [1]: 0.00023 s⁻¹ | kon [1]: 90000 M⁻¹ s⁻¹ | TOP [3]: 85.8 | EC50 [6]: 0.148 nM | EC50 [11]: 1.17 nM
B3: Hu1210-22 (antibody, V domains shown)
VH: B2 VH with A54G, R61S
VL: B2 VL with A43S
notes: Hu1210 VH.4b x Vk.1a; human gamma 1 / kappa constant domains
